Results as given in paper doi:10.1101/2024.02.22.580433 (bioRxiv, 2024).
Positions count from the first letter of the chain named. Names and notes keep the numbering of the source.

B1: Acanthamoeba polyphaga mimivirus gp275 (encoded by gene R252) (natural protein, UniProt Q5UPU2 1-278, looked up)
chain: MMIHIHQDKKMSTRSNKKSTKTEKVAKATKPVENVEVSDNEVQEQAVKTKASGKKVTAKSTKQSGGKNAKSGSKSAKSGSKSAKSGSKTSKTQSGGKGDESRDRYFKLIDAKTGRSFGRYTGGTPKQAASKGFTKMIHKIKAEGGALPKNGTMKIYLRESTRGSPRKVYAYEATRKQLTEPQKIEIEGSDGKKKVITYRYRNVIHKVSAPLPNQLGGLKTSRSNKKSGETKKSGSRSSGSKRSAKPTKSAKNAKSTGNKKVSTKSAGAKKAPAAKASR
B2: gp275-K126A (natural protein, Acanthamoeba polyphaga mimivirus, UniProt Q5UPU2 1-278, looked up)
chain: B1 chain with K126A

Tests used:
[1] = biological target: gp275-do, the minimal MC1 domain of gp275 (Acanthamoeba polyphaga mimivirus) (UniProt Q5UPU2); assay: SEC
SEC = biological target: the molecule itself; assay: SEC

Row | Molecule | stoichiometry N [1] | stoichiometry N (SEC)
1 | gp275-do, the minimal MC1 domain of gp275 (from UniProt Q5UPU2 97-228) (domain or fragment) | 2 | 
2 | B1 |  | 4
3 | B2 |  | 4
